Results from patent publication US20210198366A1 (NGM BIOPHARMACEUTICALS, published 2021).

How the values were obtained:
[1] = target: T1, cynomolgus monkey B7-H7 expressed on HEK-293T cells (cynomolgus monkey); assay: FACS on HEK-293T cells expressing cyno B7-H7
T1 construct: also called cyno B7-H7; cells expressing cyno B7-H7
T1 chain: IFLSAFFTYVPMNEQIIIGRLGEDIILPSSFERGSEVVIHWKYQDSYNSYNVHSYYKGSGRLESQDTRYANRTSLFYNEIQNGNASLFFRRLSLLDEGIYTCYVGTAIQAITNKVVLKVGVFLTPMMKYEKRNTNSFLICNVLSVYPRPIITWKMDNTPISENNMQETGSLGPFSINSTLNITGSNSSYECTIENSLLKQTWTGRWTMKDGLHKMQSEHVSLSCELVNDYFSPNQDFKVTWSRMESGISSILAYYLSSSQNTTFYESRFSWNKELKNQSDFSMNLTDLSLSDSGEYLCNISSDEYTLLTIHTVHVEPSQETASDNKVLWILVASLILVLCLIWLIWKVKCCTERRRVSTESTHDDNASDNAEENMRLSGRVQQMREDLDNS

[2] = target: T2, soluble human B7-H7-Fc fusion protein (extracellular region of human B7-H7, aa 23-344, and a human Fc … (human, UniProt Q9UM44 23-344)); assay: FACS competition: antibody titrated against soluble hB7-H7-Fc binding to HEK-293 cells expressing human KIR3DL3
T2 construct: also called hB7-H7-Fc; soluble B7-H7
T2 sequence: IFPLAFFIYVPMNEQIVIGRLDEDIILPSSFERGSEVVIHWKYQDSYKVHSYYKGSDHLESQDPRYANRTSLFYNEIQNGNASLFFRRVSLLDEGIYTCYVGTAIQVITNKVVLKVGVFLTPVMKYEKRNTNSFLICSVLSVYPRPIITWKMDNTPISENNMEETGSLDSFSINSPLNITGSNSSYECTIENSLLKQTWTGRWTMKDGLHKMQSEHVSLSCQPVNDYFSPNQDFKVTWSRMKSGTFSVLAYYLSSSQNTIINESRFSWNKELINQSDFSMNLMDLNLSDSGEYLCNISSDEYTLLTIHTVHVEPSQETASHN
Method: (§1) Exemplary anti-B7-H7 antibodies identified by ELISA and FACS were tested for their ability to block binding of soluble B7-H7 to receptors KIR3DL3 or CD28H in a FACS assay. HEK-293 cells were transiently transfected with a construct encoding (i) a membrane-bound KIR3DL3 protein or (ii) a membrane-bound CD28H protein. After 48 hours, transfected cells were suspended in ice cold PBS containing 1% FBS and 0.1% sodium azide and incubated on ice in the presence of […]/ml of soluble human B7-H7-Fc protein and antibodies 2D7, 1D3, 28F3, 16D5, 2F10, 5F7, 5B10, 5C9, or 3H6 (serially diluted from […] to 4.6 ng/ml). A second incubation with an anti-human Fc secondary antibody was performed to detect cells bound by the soluble B7-H7-Fc. The cells were analyzed on a BD FACSCalibur instrument (BD Biosciences) and the data was processed using FlowJo software. Calculated IC50s are shown Table 12.

[3] = target: T3, human B7-H7 (soluble analyte in SPR) (human, UniProt Q9UM44 23-344, limits assumed); assay: SPR (Biacore), antibody captured by anti-Fc on CM5 chip, B7-H7 injected, 37 C
T3 sequence: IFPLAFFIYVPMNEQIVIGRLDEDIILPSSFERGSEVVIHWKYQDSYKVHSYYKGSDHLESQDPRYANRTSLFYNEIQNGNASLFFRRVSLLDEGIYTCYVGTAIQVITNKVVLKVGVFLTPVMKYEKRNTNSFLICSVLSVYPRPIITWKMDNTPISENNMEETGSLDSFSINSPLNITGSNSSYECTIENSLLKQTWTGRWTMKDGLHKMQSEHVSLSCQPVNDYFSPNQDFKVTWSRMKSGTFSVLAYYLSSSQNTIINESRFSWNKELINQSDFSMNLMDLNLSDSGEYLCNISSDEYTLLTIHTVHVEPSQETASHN
Method: The binding affinities of exemplary anti-B7-H7 antibodies to human B7-H7 and cyno B7-H7 were measured using SPR technology (Biacore system, GE Healthcare Life Sciences). Briefly, anti-Fc antibody (Sigma-Aldrich) was immobilized on all four flow cells of a CM5 chip using amine coupling reagents (GE Healthcare LifeSciences). Exemplary antibodies were captured on flow cells 2, 3, and 4 using flow cell 1 as a reference. Human B7-H7 or cyno B7-H7 (samples ranging from 0.62-40 nM) were injected at a flow rate of 50 μL/min at 37° C. Kinetic data were collected over time and fit using the simultaneous global fit equation to yield affinity constants (KD values) for each antibody.

[4] = target: T4, human B7-H7 expressed on the cell surface (human, UniProt Q9UM44 23-414); assay: cell-based or functional assay
T4 sequence: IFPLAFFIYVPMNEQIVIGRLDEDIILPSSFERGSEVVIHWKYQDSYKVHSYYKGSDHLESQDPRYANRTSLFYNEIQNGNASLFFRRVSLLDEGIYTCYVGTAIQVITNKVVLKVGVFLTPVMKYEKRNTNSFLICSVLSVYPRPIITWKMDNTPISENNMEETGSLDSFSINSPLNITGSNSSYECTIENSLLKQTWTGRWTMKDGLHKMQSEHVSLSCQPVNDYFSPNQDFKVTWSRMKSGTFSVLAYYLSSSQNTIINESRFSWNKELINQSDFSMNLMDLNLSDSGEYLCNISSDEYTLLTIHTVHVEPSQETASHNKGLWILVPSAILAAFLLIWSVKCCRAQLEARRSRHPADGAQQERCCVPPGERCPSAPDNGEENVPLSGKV

[5] = target: T2, soluble human B7-H7-Fc fusion protein …; assay: FACS competition: antibody titrated against soluble hB7-H7-Fc binding to HEK-293 cells expressing human CD28H
Method: as §1

[6] = target: T4, human B7-H7 expressed on the cell …; assay: FACS on HEK-293T cells expressing human B7-H7

| MFI [1] | IC50 [2] | Kd [3] | IC50 [5] | MFI [6] | Binder | Induction of NK-92 cytotoxicity EC50 [4] | Induction of NK-92 cytotoxicity Relative efficacy [4] |
| --- | --- | --- | --- | --- | --- | --- | --- |
| 134 MFI | 2.5 nM | 0.3 nM | 3 nM | 101 MFI | anti-B7-H7 antibody 2F10 (antibody, V domains shown, Mouse hybridoma antibody) VH: EIQLQQTGPELVKPGASLRISCKASGYSFTDYIIVWVKQNQGKNLDWIEKINPYYGTTTYNLRFEDKATLTVNKSSTTAYMQLNSLTSEDSAVYYCARWDYVSTLFAMDYWGQGTSITVSS VL: DIVMTQSHKVMSTSVGDRVSIICKASQDVGTAVAWYQQKPGQSPKLLIYWASTRHTGVPDRFTGSGSGTDFILTITNVQSENLANYFCQQYKRYYTFGGGTKLEIK | 0.9 nM | 146% |
| 199 MFI | 1.7 nM | 0.2 nM | 2 nM | 165 MFI | anti-B7-H7 antibody 16D5 (antibody, V domains shown, Mouse hybridoma antibody) VH: QVQLQQSAAELARPGASVKMSCKASGYTFTTYTMHWVKQRPGQGLEWIGYINPSRGYSDYSQKFQGKSTLTTDKSSNTAYIQLTSLTSEDSAVYFCARGGYDFDYWGQGTTLTVSS VL: DIVMTQSHKFMSTSVGDRVSITCKASQDVGTAVAWYQQKPGQSPKLLLYWASTRHTGVPDRFTGSGSGTDYTLTISSVQAEDLALYHCQQHFITPYTFGGGTKLEIK | 0.5 nM | 135% |
| 195 MFI | 1.6 nM | 0.6 nM | 1.8 nM | 163 MFI | anti-B7-H7 antibody 5F7 (antibody, V domains shown, Mouse hybridoma antibody) VH: QEQLQQPGTELVKPGASVKISCKASGYTFSSYSMHWVKLTPGQGLEWMGTIYPGNENTSYNQKFKGKATLTADKSSSTAYMQLSSLTSEDSAVYYCARGGYYFDYWGQGTTLTVSS VL: DIVMTQSHKFLSTSVGDRVSITCKASQDVSTAVAWYQQKPGQSPKLLIYWASTRHTGVSDRFTGSGSGTDFTLTISSVQAEDLALYYCQQHFDIPYWFGGGTKLEIK | 0.6 nM | 151% |
| 568 MFI | 2.7 nM | 0.8 nM | 2.5 nM | 41 MFI | anti-B7-H7 antibody 3H6 (antibody, V domains shown, Mouse hybridoma antibody) VH: EVQLQQSGPELVKPGASVKISCKTSGYTFTEYTMHWVKQSHGKSLEWIGGINPNNGGAPYNQKFKGKATLTVDKSSSTAYMELRSLTSEDSAVYYCARGGYYFDYWGQGTTLTVSS VL: DIVMTQSHKFMSTSVGDRVSITCKASQDVSTAVAWYQQKSGQSPKLLIYWASTRHTGVPDRFTGSGSGTDYTLTISSVQAEDLALYYCQQHYDTPFTFGGGTKLEIK | 0.8 nM | 105% |
| 93 MFI | 2.4 nM | 4 nM | 3.4 nM | 82 MFI | anti-B7-H7 antibody 5B10 (antibody, V domains shown, Mouse hybridoma antibody) VH: EVQLQQSGPELEKPGASVKISCKASGYSFTGYNMNWVKQSNGKSLEWIGNIDPYSGGSTYNQKFKGKATLTVDKSSSTASLQLKSLTSEDSSVYYCARSFYDAPYLTYWGQGTLVTVSA VL: DIQMTQSPTSLSASVGETVTITCRASENIFIYLAWYQQKQGKSPQLLVFNAKTLAEGVPSRFSGSGSGTQFSLKINSLRPEDFGTYYCQHHYGTPPTFGGGTKLEV | 1.6 nM | 148% |
| 176 MFI | 3 nM | 0.8 nM | 3.4 nM | 185 MFI | anti-B7-H7 antibody 5C9 (antibody, V domains shown, Mouse hybridoma antibody) VH: QVQLQQSGAELAKPGASVKMSCKASGYTFTSFWIHWIKQRPGQGLEWIGYIIPNTDYTEYNQKFKDKATFTADKSSSTAYMQLSSLTSEDSAVFYCARGLRGAYYFDYWGQGTTLTVSS VL: DIVLTQSPASLAVSLGLRATISCRSSQSVSTSTNGYMHWYQQKPGQPPKLLIMYASNLESGVPARFSGSGSGTDFTLNIHPVDEEDTATYYCQHSWVLPYTFGGGTKLEIK | 1.6 nM | 155% |
